This sample holds only a part of the variants without activity.
B1: TPR 5TU (parent)
chain: GGAUCUUCUCGAUCUAACAAAAAAGACAAAUCUGCCACAAAGCUUGAGAGCAUCUUCGGAUGCAGAGGCGGCAGCCUUCGGUGGCGCGAUAGCGCCAACGUUCUCAACUAUGACACGCAAAACGCGUGCUCCGUUGAAUGGAGUUUAUCAUG

Variants of: B1
Experiment: polymerase ribozyme fitness, log enrichment relative to wild type (log ratio); higher = more active; in vitro selection for triplet polymerase activity
Summary of the method: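 For each subunit of a heterodimeric triplet polymerase ribozyme, a mutant library was built by PCR and transcribed, then taken through a single in vitro selection round in triplicate. Selection involved annealing to a biotinylated primer, the partner subunit and triplets, incubation frozen at −7 °C, gel excision of extended constructs, capture on streptavidin beads and RT-PCR. Genotypes were retained after Illumina sequencing of inputs and outputs only with ≥10 input reads and ≥1 read in each output. Fitness is defined as the logarithm of a genotype's enrichment relative to wild-type enrichment, using inverse-variance-weighted averages across replicates, with the logarithm taken to base 2.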

| Variant | polymerase ribozyme fitness (log ratio) |
| --- | --- |
| U7C U9C A20U C75G C93U A106C C114A | ≤ -4.2 |
| U6G U45A C57U G67C C95G C99U | ≤ -4.2 |
| U6C A26C A28G | -3.84 |
| U6G A17U A60G C93A A98U | -1.75 |
| U6A G83C A89U G136U A137G | -3.78 |
| U6C U44A U56A U61C A91G U130A C132U A150C U151G | ≤ -4.2 |
| U6G C18G A66C G68C G88C G152C | ≤ -4.2 |
| U7G A21U C54A A66C A91C G136A | ≤ -4.2 |
| U6C C96G C105U | -0.764 |
| C8A A20U G42C C43G U44A A113U A142C | ≤ -4.2 |
| C8A A49G G71A C93U G152A | ≤ -4.2 |
| C8G A30C C75A G86U C118G | ≤ -4.2 |
| C8U A21C A28U U53A U77G G88U U145G A150C | ≤ -4.2 |
| U7C A21C U33G C43U G62A C87U | ≤ -4.2 |
| C8A C85A | -3.27 |
| C8G A41U U55G U56A G65A G70C U78A G81A C93A A122U | ≤ -4.2 |
| C8U C18A A20C A23C G62C A89G G136U | ≤ -4.2 |
| U7C C18G G25C A28U C38G U55A G70C G94C | ≤ -4.2 |
| C8A C27U C76U | ≤ -4.2 |
| C8G A147C | ≤ -4.2 |
| U6G A41G G48U C54U A122U | -0.949 |

| Variant | polymerase ribozyme fitness (log ratio) |
| --- | --- |
| C8G G62C G70U C96A C103U | ≤ -4.2 |
| U7G C8A G46C C63U G83C C85G C114G C149A | ≤ -4.2 |
| U7G A26U U56A G59U C75G G84U G94U U130G U146C | ≤ -4.2 |
| U7C A23U C87A A89G A115U U134A | ≤ -4.2 |
| C8G A17G A21U A98G | -3.93 |
| U6C C85G | -2.95 |
| U6C G83A C114U | -2.57 |
| U6C A16U A17G C85U A89G | ≤ -4.2 |
| U6A G62A C76A A91U A121U C123A A138C G141U | ≤ -4.2 |
| U7G A19C A40G U56A A120G A150C | ≤ -4.2 |
| U6G G46A A113U C125U G136U U146C | ≤ -4.2 |
| C8U C32A A49G G92A C96U U127G A138G | ≤ -4.2 |
| C8U A29G G62A C93U C95A U144A | ≤ -4.2 |
| U9A A16U C57U G70A C79A G88U C95U A119U U151A | ≤ -4.2 |
| U7A C18U | -3.45 |
| C8A A12U U15G G62U G124A | ≤ -4.2 |
| U6G C51A G83C | -2.97 |
| U7A C10G U55A C72U G94A U151A | ≤ -4.2 |
| U7C C35U U127G | -3.61 |
| U6G C43A A52C C85A A98U A113C | ≤ -4.2 |
| U6G A21C C75U U144A | -0.201 |

| Variant | polymerase ribozyme fitness (log ratio) |
| --- | --- |
| C8G U13A U33G G71A G74A C87G C96A C105A | ≤ -4.2 |
| C8G C96U | -3.47 |
| U9A A21G A41C G48U A49C U111G C131A | ≤ -4.2 |
| C8A G86A | -3.76 |
| C8G G25C U53G C63U C108A | ≤ -4.2 |
| C8G U82G G84U C85U A107C | ≤ -4.2 |
| C8U A24U U55G C69U G74U C87A A138U | ≤ -4.2 |
| U6G A24U C79A G84U C85U G117U G141A | ≤ -4.2 |
| U6G U13G C14U A24C C76A G81U C87A | ≤ -4.2 |
| U7C A23G A49U U56G G84U G86U A137U | ≤ -4.2 |
| U9A A12U C85U G88C U148G | ≤ -4.2 |
| U7C U15G A41U A52G C96A | -3.52 |
| U7G A20C U56G U146G | -3.82 |
| U7C A39G C85G C105A A107U | ≤ -4.2 |
| C8G C10G C14G A41C G83U A119U G141C | ≤ -4.2 |
| C8A C116U U135C A150G | ≤ -4.2 |
| C8U G141U | -2.76 |
| U7A U9C A20G U53G C87U A98U | -3.99 |
| U6G G11C C14U C93A | ≤ -4.2 |
| C8G U15C A52G C57G G59U C87G | -3.95 |
| U6G C79A G84C G152A | ≤ -4.2 |

| Variant | polymerase ribozyme fitness (log ratio) |
| --- | --- |
| C8U C79A G92A C105A | ≤ -4.2 |
| C8U A17G A21U C57U G80A C96G | ≤ -4.2 |
| C8A G83U U90G C118A | ≤ -4.2 |
| C8U A19C U33G U53A U55A C96G C108U | -3.8 |
| C8A U53A A73U G74U G92U A142U G143A | ≤ -4.2 |
| U7G C96U | -2.17 |
| C8U A52G | -3.63 |
| U7A C27A U31G A66U U146G A150U | ≤ -4.2 |
| C8U C18G G50C G58U A73G C76A C93A C116A A120C | ≤ -4.2 |
| C8A U55A C79U G84A C108G G124A | ≤ -4.2 |
| U6C C38U C75G U82A A107G A120G G133A U134A | ≤ -4.2 |
| U6C C14U C38U U61A U145C | -4.04 |
| U7A A29U A49C U53A G84C U102C | ≤ -4.2 |
| U6G C38U U44A G81C A120C G140U | ≤ -4.2 |
| U6G A17U A21U A49C C51U C79U G84A C114G | ≤ -4.2 |
| U7G G34U A60U C93U A107U | ≤ -4.2 |
| U7C G68U A73G U82A G92A U101C C116A A137C | ≤ -4.2 |
| U6G A47U U61G C69A | ≤ -4.2 |
| C8A C14U A16U U33G A47U C57A C93A A142U | ≤ -4.2 |
| C8U A39G G86U U102C U111G U144C G152A | ≤ -4.2 |

Reference: the RNAGym collection of RNA variant scans (doi:10.1073/pnas.2313332121)
